Reference: patent US20100040611A1 (Merck Sharp & Dohme, published 2010)
Where a chain is given by its changes, count along the chain named. Like-named read-outs stand apart in the source and are kept apart here. Blank lines part the entries; values can stand above or below the binder they belong to.

How the values were obtained:
Test in all cases: cell-based or functional assay
[1] = biological target: T1, recombinant human PCSK9, V5-, His-tagged (human, UniProt Q8NBP7 31-692, limits assumed)
[2] = biological target: T1, recombinant human PCSK9, V5-, His-tagged; remark: listed apart in the source
[3] = biological target: T1, recombinant human PCSK9, V5-, His-tagged; remark: listed apart in the source
[4] = biological target: T1, recombinant human PCSK9, V5-, His-tagged; remark: listed apart in the source
[5] = biological target: T1, recombinant human PCSK9, V5-, His-tagged; remark: listed apart in the source

T1 sequence (Q8NBP7 31-692 limits assumed): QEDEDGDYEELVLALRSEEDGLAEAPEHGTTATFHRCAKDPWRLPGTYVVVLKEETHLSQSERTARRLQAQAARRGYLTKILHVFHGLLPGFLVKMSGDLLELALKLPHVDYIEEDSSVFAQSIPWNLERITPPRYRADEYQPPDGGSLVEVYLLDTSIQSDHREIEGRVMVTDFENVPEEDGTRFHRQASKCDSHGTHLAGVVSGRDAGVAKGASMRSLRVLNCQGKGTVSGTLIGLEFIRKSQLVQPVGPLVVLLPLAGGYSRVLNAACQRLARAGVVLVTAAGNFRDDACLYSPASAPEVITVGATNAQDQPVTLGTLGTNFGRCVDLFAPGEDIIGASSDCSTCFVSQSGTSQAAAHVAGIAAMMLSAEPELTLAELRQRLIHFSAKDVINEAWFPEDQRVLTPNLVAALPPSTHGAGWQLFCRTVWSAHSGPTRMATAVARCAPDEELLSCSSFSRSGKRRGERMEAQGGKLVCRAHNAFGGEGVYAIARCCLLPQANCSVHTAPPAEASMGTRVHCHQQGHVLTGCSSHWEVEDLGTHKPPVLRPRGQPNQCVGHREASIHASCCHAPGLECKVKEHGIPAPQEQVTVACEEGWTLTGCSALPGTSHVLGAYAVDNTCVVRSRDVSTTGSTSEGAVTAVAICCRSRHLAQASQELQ

B1: 3CX4B08 (Fab, V domains shown)
VH: QVQLVESGGGLVQPGGSLRLSCAASGFTFSNYTMNWVRQAPGKGLEWVSFISSSSSETYYADSVKGRFTISRDNSKNTLYLQMNSLRAEDTAVYYCARGYGDMVDLWGQGTLVTVSS
VL: DIELTQPPSVSVAPGQTARISCSGDSIPTYYVAWYQQKPGQAPVLVIYSDTDRPSGIPERFSGSNSGNTATLTISGTQAEDEADYYCQSFDNHGYHVFGGGTKLTVLG
- IC50: reversal of PCSK9-dependent loss of cellular diI-LDL uptake (Exopolar assay), Fab titrated against a fixed 25 µg/ml PCSK9 [1]: 127 nM

B2: 3BX5C01 (Fab, V domains shown)
VH: QVQLVQSGAEVKKPGESLKISCKGSGYSFTSYGISWVRQMPGKGLEWMGMIDPSDSFTTYSPSFQGQVTISADKSISTAYLQWSSLKASDTAMYYCARGYYFTYALQPMDHWGQGTLVTVSS
VL: DIELTQPPSVSVAPGQTARISCSGDNLRDYIVHWYQQKPGQAPVLVIYDDSNRPSGIPERFSGSNSGNTATLTISGTQAEDEADYYCGFDNGGDIDVFGGGTKLTVLG
- IC50: reversal of PCSK9-dependent loss of cellular diI-LDL uptake (Exopolar assay), Fab titrated against a fixed 25 µg/ml PCSK9 [2]: 1250 nM

B5: 1CX1G08 (Fab, V domains shown)
VH: QVQLVESGGGLVQPGGSLRLSCAASGFTFSDYWVSWVRQAPGKGLEWVSFISYDGSSTYYADSVKGRFTISRDNSKNTLYLQMNSLRAEDTAVYYCARTYFEGVDVWGQGTLVTVSS
VL: DIELTQPPSVSVAPGQTARISCSGDNIGTYYVHWYQQKPGQAPVLVIYDDSNRPSGIPERFSGSNSGNTATLTISGTQAEDEADYYCGTWDNTSFNLVFGGGTKLTVLG
- IC50: reversal of PCSK9-dependent loss of cellular diI-LDL uptake (Exopolar assay), Fab titrated against a fixed 25 µg/ml PCSK9 [5]: 267 nM

More lines, now with the values ahead:

- IC50: reversal of PCSK9-dependent loss of cellular diI-LDL uptake (Exopolar assay), Fab titrated against a fixed 25 µg/ml PCSK9 [3]: 107 nM
B3: 3CX2A06 (Fab, V domains shown)
VH: QVQLVQSGAEVKKPGESLKISCKGSGYSFSNFWIAWVRQMPGKGLEWMGIIDPSDSWTRYSPSFQGQVTISADKSISTAYLQWSSLKASDTAMYYCARGDGQDFDNWGQGTLVTVSS
VL: DIQMTQSPSSLSASVGDRVTITCRASQNINSYLNWYQQKPGKAPKLLIYAASSLQSGVPSRFSGSGSGTDFTLTISSLQPEDFAVYYCLQNYDLPNTFGQGTKVEIKR

- IC50: reversal of PCSK9-dependent loss of cellular diI-LDL uptake (Exopolar assay), Fab titrated against a fixed 25 µg/ml PCSK9 [4]: 269 nM
B4: 3CX3D02 (Fab, V domains shown)
VH: QVQLVQSGAEVKKPGESLKISCKGSGYSFTNSWIGWVRQMPGKGLEWMGIIYPSDSYTIYSPSFQGQVTISADKSISTAYLQWSSLKASDTAMYYCARGGGYYYALMDVWAQGTLVTVSS
VL: B3 VL with N28T, N30S, S31T, Y32W, V85T, N91D, Y92S, D93S, N96L
